In publication PMC11376072, “Moderately thermostable GH1 β-glucosidases from hyperacidophilic archaeon Cuniculiplasma divulgatum S5” (FEMS Microbiology Ecology, 2024):

How the values were obtained:
[1] = biological target: the molecule itself; test: SEC; size-exclusion chromatography of the purified protein; conditions not given
purified protein = substrate: O=[N+]([O-])c1ccc(O[C@@H]2O[C@H](CO)[C@@H](O)[C@H](O)[C@H]2O)cc1; test: purified protein; settings: 50 mM MES pH 5.0, 30°C, 30 min, 0-10 mM substrate

B1: CIB13, GH1 β-glucosidase from Cuniculiplasma divulgatum S5 (enzyme)
chain: MLPKGFRFGFSLAGFQSEMGLSGKDENSDWYQWCHDEYNIKNGVVSGDFPENGAAYWDLFRKDHETAVNIGMNSTRIGIEWSRIFPTSTEGVKVRIDRDGDNITGITIEKSDLESLKKICNMDAVKKYREIFMDLKDRNFYMILNLFHWSMPLWINDPRKREISKGNNLGNFFSEKSVIEFAKFAAFAAYSFDDLVDVYSTMNEPNVVFSGGNNNSEKKYYSKMKFFIEAHARAYDCIRTISRKRIGVIYANEHIESLENSDPELVEEVTWRNRYSFIDSIKSGKTFSTKNMEENSRWPEKNVFRKDLENRLDWIGVNYYSRYVVRRIESGFEAIDGYGFLCSGYEKSKDGRVVSEMGWEIYPQGLYDVLMGYQERYSLPMMVTENGIADDMDRYRPGFLISHMKMIERAIKDGAGVEGYLHWSLTDNFEWSSGFSKKFGLLRVDYRTKKRSIRPSALVFREISKKSGVPEELEWLGERFY
notes: CIB13, GH1 β-glucosidase of Cuniculiplasma divulgatum S5 (JCM 30642), GenBank SIM79973.1, CSP5_1651; predicted monomeric mass 56.1 kDa; Cloned into p15TvL with an N-terminal 6His-tag; also called CSP5_1651; source: E. coli BL21(DE3) Lobstr, purified (Ni-NTA)
stoichiometry N [1]: 2
Km (purified protein): 900 ± 100 µM
Vmax (purified protein): 0.93 µmol/min/mg
kcat (purified protein): 0.87 s⁻¹

B2: CIB12, GH1 β-glucosidase from Cuniculiplasma divulgatum S5 (enzyme)
chain: MFPKNFKFGFSEAGFQFEMGVSDIDTNTDWYKWSHDSENIKNHIVSGDRPEEGVGYWDLYPKDHDLAEYIGMNAARIGIEWSRIFPVSTERVTVEVIEENGDILEIKITEKTIKELDLLSDKNAMQHYTNIFNDIKKRGWFLVINLFHWSLPLWINDPSNRNSEKDNALGNCMNRSSVIEFVKYAAYISYYFGSIADRFATMNEPNEVFKTCSEDKRVESYHIRMKWFVEAHARSYDAMKQFTNRQIGVIYANGDVQSFENKDPKLKEEVEYEQRYSFFDALIHGDVHWYVGACRKTNHVHGKSIRPDLSNRIDWIGVNYYSRNVVKRKEDGYENVRGLGYDTGWVSYEKSLDGRSVSETGWEIYPEGIYNIVMSYHKRYELPMMITENGMADDNDRFRPRYLVSHLKNLERAINDGAKVDGYLHWALTDNFEWGSGFSKKFGLIKVDYKTKKRYLRPSALIMKEITKHNGIPEELEWLGEDKF
notes: CIB12, GH1 β-glucosidase of Cuniculiplasma divulgatum S5 (JCM 30642), GenBank SIM59545.1, locus tag CSP5_0942; predicted monomeric mass 56.8 kDa; Cloned into p15TvL with an N-terminal 6His-tag; also called CSP5_0942; source: E. coli BL21(DE3) Lobstr, purified (Ni-NTA)
stoichiometry N [1]: 2
Km (purified protein): 500 ± 100 µM
Vmax (purified protein): 0.61 µmol/min/mg
kcat (purified protein): 0.57 s⁻¹
